Measured values from patent publication US20220185900A1 (Regeneron, published 2022).

T1: Macaca fascicularis (mf) RET.mmh (Macaca fascicularis)
T1 construct: also called monkey RET
T1 chain: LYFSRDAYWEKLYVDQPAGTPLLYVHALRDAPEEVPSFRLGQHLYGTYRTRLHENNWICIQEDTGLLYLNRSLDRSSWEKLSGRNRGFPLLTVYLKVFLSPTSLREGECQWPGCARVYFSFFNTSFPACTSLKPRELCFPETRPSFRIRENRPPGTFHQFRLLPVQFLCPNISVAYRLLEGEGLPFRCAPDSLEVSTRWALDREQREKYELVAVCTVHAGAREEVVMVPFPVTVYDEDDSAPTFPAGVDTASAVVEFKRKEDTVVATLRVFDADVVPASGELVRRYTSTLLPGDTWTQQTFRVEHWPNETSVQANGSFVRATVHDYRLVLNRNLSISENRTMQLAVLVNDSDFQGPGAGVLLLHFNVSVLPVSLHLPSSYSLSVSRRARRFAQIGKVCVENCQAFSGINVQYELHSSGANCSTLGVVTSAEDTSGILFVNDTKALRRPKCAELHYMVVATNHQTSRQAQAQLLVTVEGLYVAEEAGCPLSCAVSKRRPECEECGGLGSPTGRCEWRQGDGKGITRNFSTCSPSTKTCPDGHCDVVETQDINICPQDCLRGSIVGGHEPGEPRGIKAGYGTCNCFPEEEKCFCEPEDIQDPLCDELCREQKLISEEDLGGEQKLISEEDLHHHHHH

B1: H4H8076P (antibody, human IgG4, V domains shown)
VH: QVQLQQSGPGLVKPSQTLSLTCAISGDSVSSNSVAWNWIRQSPSRGLEWLGRTYYRSNWYNTYAVSVKSRITIDPDTSKNQFSLQLNSVTPEDTALYYCARGHRYSGSYFDYWGQGTLVTVSS
VL: DIQMTQSPSSLSASVGDRVTITCRASQNINSYFNWYQQKPGKAPKLLIYAASSLQSGVPSRFSGGGSGTDFTLTISSLQPEDFATYYCQQTYTIPWTFGQGTKVEIK
notes: human IgG4 Fc (H4H prefix)
B2: H4H8079P (antibody, human IgG4, V domains shown)
VH: EVQLVESGGGLVKPGGSLRLSCAASGFTFSNAWMSWVRQAPGKGLEWVGRIKSKTDGGTSEYAAPVKGRFTISRDDSKNTLFLQMNSLKSEDAAVYYCTTGRSWSDYFDFWGQGTLVTVSS
VL: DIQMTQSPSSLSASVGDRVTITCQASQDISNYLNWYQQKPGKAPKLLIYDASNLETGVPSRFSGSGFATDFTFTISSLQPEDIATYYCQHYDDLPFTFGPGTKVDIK
notes: human IgG4 Fc (H4H prefix)
B3: H4H8046P (antibody, human IgG4, V domains shown)
VH: QVQLVQSRDEVKKPGASVKVSCKASGYTFTTYGISWVRQAPGQGLEWMGWINTYNGDTNYAQKVQDRVIMTTDTSTSTAYMELRSLRSDDTAVYFCAGARPLGGRRAFDIWGQGTMVTVSS
VL: DIQMTQSPSSLSASVGDRVTITCRASQGISHYLAWYQQKPGKVPKLLIYAASTLQSGVPSRFSGSGSGTDFTLTISSLQPEDVATYYCQKYNSVPWTFGQGTKVEIK
notes: human IgG4 Fc (H4H prefix)
B4: H4H8044P (antibody, human IgG4, V domains shown)
VH: QVQLVESGGGVVQPGRSLRLSCAASGFTFSGSGMHWVRQAPGKGLEWVAVIWEDGSNKYYADSVRGRFTISRDNFKNTLYLQMNSLRAEDTAVYYCARQTMVRGVIRFYYYYYGMDVWGQGTTVTVSS
VL: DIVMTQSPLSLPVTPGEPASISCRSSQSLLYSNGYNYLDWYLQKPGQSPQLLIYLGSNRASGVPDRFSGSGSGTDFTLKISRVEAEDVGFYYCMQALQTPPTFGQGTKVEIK
notes: human IgG4 Fc (H4H prefix)
B5: H4H8045P (antibody, human IgG4, V domains shown)
VH: EVQLVESGGALVQPGGSLRLSCAASGFTFSNYAMTWVRQAPGMGLEWVSGISSSGASTFYADSVKGRFTISRDNSKNTLYLQMNSLRAEDTAVYYCAKEDYWGWFDYWGQGTLVTVSS
VL: DIQLTQSPSFLSASVGDRVTITCWASQDVSSYLAWYQQEPGKAPKVLIYDASTLQSGVPSRFSGSGSGTEFTLTISSLQPEDFAPYYCQQLNSYPYTFGQGTKLEIK
notes: human IgG4 Fc (H4H prefix)

What was measured:
hRET.mmh [1] = biological target: T2, hRET.mmh (human, UniProt P07949 29-635, biotinylated in the ELISA of Example 4 (biot-hRET.mmh); not in the SPR of Example 3); experiment: SPR Biacore T200, mAb capture, 25 C
T2 construct: also called biot-hRET.mmh; soluble monomeric human RET
Method: (§1) Binding affinities and kinetic constants of human anti-RET antibodies were determined by surface plasmon resonance (Biacore T200) at […] (Tables 2-3). […] Binding equilibrium dissociation constants (KD) and dissociative half-lives (t_{1/2}) were calculated from the kinetic rate constants as: KD [M]=kd/kₐ; and t_{1/2}(min)=(ln2/(60*kd). Calculations were performed using BiacoreT200 evaluation software v1.0.

[2] = biological target: T1, Macaca fascicularis (mf) RET.mmh; experiment: SPR Biacore T200, mAb capture, 25 C
Method: as §1

hRET.mFc [3] = biological target: T3, hRET.mFc (human); experiment: SPR Biacore T200, mAb capture, 25 C
T3 construct: also called dimeric human RET
Method: as §1

hRET.mmh [4] = biological target: T2, hRET.mmh; experiment: SPR Biacore T200, mAb capture, 37 C
Method: as §1

[5] = biological target: T1, Macaca fascicularis (mf) RET.mmh; experiment: SPR Biacore T200, mAb capture, 37 C
Method: as §1

hRET.mFc [6] = biological target: T3, hRET.mFc; experiment: SPR Biacore T200, mAb capture, 37 C
Method: as §1

hRET.mmh [7] = biological target: T2, hRET.mmh; experiment: competition sandwich ELISA: 1 nM biot-hRET.mmh + antibody, plate-coated GDNF/GFRα1 co-complex
Method: The ability of anti-RET antibodies to block the binding of human RET to pre-complexed plate bound GDNF:GFRα1 was assessed using a competition sandwich ELISA.
Antibody-RET mixtures were incubated for 1 hour at RT and then transferred to microtiter plates previously coated with the hGDNF/hGFRα1 co-complex. Binding was allowed to proceed for 1 hr at RT followed by extensive washing. […] Plates were read at 450 nm and data analysis used a sigmoidal dose-response model within Prism™ software.
The absorbance values of the wells containing the highest concentration for each antibody were used to determine the blocking percent at maximum concentration antibody tested.

Binder | Kd (hRET.mmh [1]) [nM] | koff (hRET.mmh [1]) [s⁻¹] | kon (hRET.mmh [1]) [M⁻¹ s⁻¹] | t½ (hRET.mmh [1]) [min] | Kd [2] [nM] | koff [2] [s⁻¹] | kon [2] [M⁻¹ s⁻¹] | t½ [2] [min] | Kd (hRET.mFc [3]) [nM] | koff (hRET.mFc [3]) [s⁻¹] | kon (hRET.mFc [3]) [M⁻¹ s⁻¹] | t½ (hRET.mFc [3]) [min] | Kd (hRET.mmh [4]) [nM] | koff (hRET.mmh [4]) [s⁻¹] | kon (hRET.mmh [4]) [M⁻¹ s⁻¹] | t½ (hRET.mmh [4]) [min] | Kd [5] [nM] | koff [5] [s⁻¹] | kon [5] [M⁻¹ s⁻¹] | t½ [5] [min] | further results
B1 | 1.51 | 0.000338 | 224000 | 34 | 1.54 | 0.000327 | 212000 | 35 | 0.686 | 0.000171 | 250000 | 68 | 4.31 | 0.00136 | 315000 | 9 | 4.84 | 0.0014 | 289000 | 8 | Kd (hRET.mFc [6]): 2.15 nM; koff (hRET.mFc [6]): 0.000675 s⁻¹; kon (hRET.mFc [6]): 314000 M⁻¹ s⁻¹; t½ (hRET.mFc [6]): 17 min; % Max Blocking (hRET.mmh [7]): 95%; IC50 (hRET.mmh [7]): < 0.25 nM
B2 | 2.68 | 0.000384 | 143000 | 30 | 3.73 | 0.000435 | 117000 | 27 | 0.72 | 0.000151 | 209000 | 77 | 9.1 | 0.00189 | 207000 | 6 | 13.3 | 0.00205 | 154000 | 6 | Kd (hRET.mFc [6]): 2 nM; koff (hRET.mFc [6]): 0.000523 s⁻¹; kon (hRET.mFc [6]): 261000 M⁻¹ s⁻¹; t½ (hRET.mFc [6]): 22 min; % Max Blocking (hRET.mmh [7]): 93%; IC50 (hRET.mmh [7]): < 0.25 nM
B3 | 0.984 | 0.000301 | 306000 | 38 | 1.13 | 0.000315 | 278000 | 37 | 0.645 | 0.000181 | 280000 | 64 | 1.81 | 0.0013 | 718000 | 9 | 1.92 | 0.00135 | 704000 | 9 | Kd (hRET.mFc [6]): 2.05 nM; koff (hRET.mFc [6]): 0.000694 s⁻¹; kon (hRET.mFc [6]): 338000 M⁻¹ s⁻¹; t½ (hRET.mFc [6]): 17 min; % Max Blocking (hRET.mmh [7]): 95%; IC50 (hRET.mmh [7]): < 0.25 nM
B4 | 5.49 | 0.000488 | 88800 | 24 | 14.7 | 0.00135 | 92000 | 9 | 1.97 | 0.000211 | 107000 | 55 | 18.6 | 0.00281 | 151000 | 4 | 48.5 | 0.00521 | 108000 | 2 | Kd (hRET.mFc [6]): 6.21 nM; koff (hRET.mFc [6]): 0.00085 s⁻¹; kon (hRET.mFc [6]): 137000 M⁻¹ s⁻¹; t½ (hRET.mFc [6]): 14 min; % Max Blocking (hRET.mmh [7]): 91%; IC50 (hRET.mmh [7]): 5.2 nM
B5 | 0.883 | 0.000246 | 279000 | 47 | 14.6 | 0.0028 | 192000 | 4 | 0.229 | 8.71e-05 | 381000 | 133 | 3.22 | 0.00127 | 395000 | 9 | 50.3 | 0.0131 | 261000 | 1 | Kd (hRET.mFc [6]): 0.834 nM; koff (hRET.mFc [6]): 0.000382 s⁻¹; kon (hRET.mFc [6]): 459000 M⁻¹ s⁻¹; t½ (hRET.mFc [6]): 30 min; % Max Blocking (hRET.mmh [7]): 75%; IC50 (hRET.mmh [7]): 0.34 nM
